Earlier results in article PMC11603612.

Columns and labels:
Glu154 = Glu154 (UniProt position 154, TGYQVEV----)
Glu131 = Glu131 (UniProt position 131, GHPENERCDEL)
Glu32 = Glu32 (UniProt position 32, RYRGREKTFSA)
Glu48 [1] = biological target: Glu48 (UniProt position 48, TNNRMELMAAI)
Glu119 = Glu119 (UniProt position 119, HQIKWEWVKGH)
Asp108 = Asp108 (UniProt position 108, LWQRLDAALGQ)
Glu135 [2] = biological target: Glu135 (UniProt position 135, NERCDELARAA)
Asp70 = Asp70 (UniProt position 70, VILSTDSQYVR)
Glu64 = Glu64 (UniProt position 64, LKEHCEVILST)
Glu6 [3] = biological target: Glu6 (UniProt position 6, MLKQVEIFTDG)
Asp134 = Asp134 (UniProt position 134, ENERCDELARA)
Asp10 = Asp10 (UniProt position 10, VEIFTDGSCLG)
His127 = His127 (UniProt position 127, KGHAGHPENER)
His124 = His124 (UniProt position 124, EWVKGHAGHPE)
His62 = His62 (UniProt position 62, EALKEHCEVIL)
Asp94 = Asp94 (UniProt position 94, GWKTADKKPVK)
Glu129 [4] = biological target: Glu129 (UniProt position 129, HAGHPENERCD)
Glu147 = Glu147 (UniProt position 147, MNPTLEDTGYQ)
Glu57 [5] = biological target: Glu57 (UniProt position 57, AIVALEALKEH)
Glu61 = Glu61 (UniProt position 61, LEALKEHCEVI)
His8 = His8 (UniProt position 90, STKKLHKEPAT)
Asp21 = Asp21 (UniProt position 103, KAIDGDTVKLM)
Asp95 = Asp95 (UniProt position 177, AYIYADGKMVN)
Glu75 = Glu75 (UniProt position 157, KKIEVEFDKGQ)
Asp19 = Asp19 (UniProt position 101, LIKAIDGDTVK)
Glu129 [6] = biological target: Glu129 (UniProt position 211, HLRKSEAQAKK)
Glu10 = Glu10 (UniProt position 92, KKLHKEPATLI)
Glu135 [7] = biological target: Glu135 (UniProt position 217, AQAKKEKLNIW)
His121 = His121 (UniProt position 203, KPNNTHEQHLR)
Glu52 = Glu52 (UniProt position 134, PKKGVEKYGPE)
Glu67 = Glu67 (UniProt position 149, TKKMVENAKKI)
Glu43 = Glu43 (UniProt position 125, LVDTPETKHPK)
Glu122 = Glu122 (UniProt position 204, PNNTHEQHLRK)
Glu73 = Glu73 (UniProt position 155, NAKKIEVEFDK)
Glu57 [8] = biological target: Glu57 (UniProt position 139, EKYGPEASAFT)
Asp40 = Asp40 (UniProt position 122, RLLLVDTPETK)
Glu101 = Glu101 (UniProt position 183, GKMVNEALVRQ)
Asp46 = Asp46 (UniProt position 796, HLSDEDFKAVF)
Asp44 = Asp44 (UniProt position 794, ENHLSDEDFKA)
Glu72 = Glu72 (UniProt position 822, QNLKKEKGLF-)
Glu45 = Glu45 (UniProt position 795, NHLSDEDFKAV)
Glu38 = Glu38 (UniProt position 38, QGLAIEATPAN)
Asp23 = Asp23 (UniProt position 23, IKNVADGYANN)
Glu54 = Glu54 (UniProt position 54, AQKQKEQRQAA)
Glu17 = Glu17 (UniProt position 17, KGKKGEIKNVA)
Asp8 [9] = biological target: Asp8 (UniProt position 8, VIFLKDVKGKG)
Glu48 [10] = biological target: Glu48 (UniProt position 48, NLKALEAQKQK)
Glu70 = Glu70 (UniProt position 70, VASECEVKCMP)
Glu13 = Glu13 (UniProt position 13, KTAFQEALDAA)
Asp61 = Asp61 (UniProt position 61, EVDVDDCQDVA)
Glu95 = Glu95 (UniProt position 95, SGANKEKLEAT)
Asp64 = Asp64 (UniProt position 64, VDDCQDVASEC)
Glu47 = Glu47 (UniProt position 47, FHSLSEKYSNV)
Glu103 = Glu103 (UniProt position 103, EATINELV---)
Glu88 = Glu88 (UniProt position 88, GQKVGEFSGAN)
Asp58 = Asp58 (UniProt position 58, IFLEVDVDDCQ)
Glu6 [11] = biological target: Glu6 (UniProt position 6, MVKQIESKTAF)
Asp60 = Asp60 (UniProt position 60, LEVDVDDCQDV)
Asp16 = Asp16 (UniProt position 16, FQEALDAAGDK)
Glu68 = Glu68 (UniProt position 68, QDVASECEVKC)
Glu56 = Glu56 (UniProt position 56, NVIFLEVDVDD)
Glu98 = Glu98 (UniProt position 98, NKEKLEATINE)
Asp20 = Asp20 (UniProt position 20, LDAAGDKLVVV)
Asp8 [12] = test system: Asp8
Asp162 = Asp162 (UniProt position 145, RLTREDVEKHL)
His166 = His166 (UniProt position 149, EDVEKHLAKAP)
His142 = His142 (UniProt position 125, RLLAEHNLDAS)
Glu164 = Glu164 (UniProt position 147, TREDVEKHLAK)
Asp145 = Asp145 (UniProt position 128, AEHNLDASAIK)
Glu141 = Glu141 (UniProt position 124, RRLLAEHNLDA)
Asp129 = Asp129 (UniProt position 112, EEQNNDALSPA)
Glu161 = Glu161 (UniProt position 144, GRLTREDVEKH)
Asp122 = Asp122 (UniProt position 149, PSIDGDRTTFT)
Asp12 = Asp12 (UniProt position 39, WQNWTDGGGIV)
Glu79 = Glu79 (UniProt position 106, RSPLIEYYVVD)
Asp107 = Asp107 (UniProt position 134, DGGTYDIYTTT)
Asp5 = Asp5 (UniProt position 32, SAASTDYWQNW)
Asp120 = Asp120 (UniProt position 147, NAPSIDGDRTT)
His157 = His157 (UniProt position 184, NAWKSHGMNLG)
His119 = His119 (UniProt position 145, PYVPVHFDASV)
Asp121 = Asp121 (UniProt position 147, VPVHFDASV--)
Glu9 = Glu9 (UniProt position 35, AAAKFERQHMD)
Asp53 = Asp53 (UniProt position 79, HESLADVQAVC)
Asp14 = Asp14 (UniProt position 40, ERQHMDSSTSA)
Glu2 = Glu2 (UniProt position 28, PSLGKETAAAK)
Asp38 = Asp38 (UniProt position 64, RNLTKDRCKPV)
Glu111 = Glu111 (UniProt position 137, IIVACEGNPYV)
His105 = His105 (UniProt position 131, TQANKHIIVAC)
Glu86 = Glu86 (UniProt position 112, ITDCRETGSSK)
Glu49 = Glu49 (UniProt position 75, NTFVHESLADV)
Asp83 = Asp83 (UniProt position 109, TMSITDCRETG)
His48 = His48 (UniProt position 74, VNTFVHESLAD)
His12 = His12 (UniProt position 38, KFERQHMDSST)

## Ribonuclease HI (RNaseH) (Escherichia coli)
Glu154
  pKa: 4.4
Glu131
  pKa: 4.3
Glu32
  pKa: 3.6
Glu48 [1]
  pKa: 4.4
Glu119
  pKa: 4.1
Asp108
  pKa: 3.2
Glu135 [2]
  pKa: 4.3
Asp70
  pKa: 2.6
Glu64
  pKa: 4.4
Glu6 [3]
  pKa: 4.5
Asp134
  pKa: 4.1
Asp10
  pKa: 6.1
His127
  pKa: 7.9
His124
  pKa: 7.1
His62
  pKa: 7
Asp94
  pKa: 3.2
Glu129 [4]
  pKa: 3.6
Glu147
  pKa: 4.2
Glu57 [5]
  pKa: 3.2
Glu61
  pKa: 3.9

## Staphylococcal nuclease (SNase) (Staphylococcus aureus (inferred))
His8
  pKa: 6.5
Asp21
  pKa: 6.5
Asp95
  pKa: 2.2
Glu75
  pKa: 3.3
Asp19
  pKa: 2.2
Glu129 [6]
  pKa: 3.8
Glu10
  pKa: 2.8
Glu135 [7]
  pKa: 3.8
His121
  pKa: 5.2
Glu52
  pKa: 3.9
Glu67
  pKa: 3.8
Glu43
  pKa: 4.3
Glu122
  pKa: 3.9
Glu73
  pKa: 3.3
Glu57 [8]
  pKa: 3.5
Asp40
  pKa: 3.9
Glu101
  pKa: 3.8

## Villin headpiece subdomain HP36 (Gallus gallus (inferred))
Asp46
  pKa: 3.5
Asp44
  pKa: 3.1
Glu72
  pKa: 4.4
Glu45
  pKa: 4

## N-terminal domain of ribosomal protein L9 (NTL / NTL9) (Geobacillus stearothermophilus (inferred))
Glu38
  pKa: 4
Asp23
  pKa: 3.1
Glu54
  pKa: 4.2
Glu17
  pKa: 3.6
Asp8 [9]
  pKa: 3
Glu48 [10]
  pKa: 4.2

## Thioredoxin (residue set of human thioredoxin) (Homo sapiens (inferred from residue set; not stated))
Glu70
  pKa: 4.6
Glu13
  pKa: 4.4
Asp61
  pKa: 4.2
Glu95
  pKa: 4.1
Asp64
  pKa: 3.2
Glu47
  pKa: 4.1
Glu103
  pKa: 4.4
Glu88
  pKa: 3.7
Asp58
  pKa: 5.3
Glu6 [11]
  pKa: 4.8
Asp60
  pKa: 2.8
Asp16
  pKa: 4
Glu68
  pKa: 4.9
Glu56
  pKa: 5.1
Glu98
  pKa: 3.9
Asp20
  pKa: 3.8

## Turkey ovomucoid third domain (OMTKY3) (Meleagris gallopavo (inferred))
Glu20
  pKa: 3.2
Glu11
  pKa: 4.1
Asp8 [12]
  pKa: 2.7
Glu44
  pKa: 4.8
Asp27
  pKa: 2.3
His53
  pKa: 7.5

## BBL (peripheral subunit-binding domain of 2-oxoglutarate dehydrogenase E2) (Escherichia coli (inferred))
Asp162
  pKa: 3.2
His166
  pKa: 5.4
His142
  pKa: 6.5
Glu164
  pKa: 4.5
Asp145
  pKa: 3.7
Glu141
  pKa: 4.5
Asp129
  pKa: 3.9
Glu161
  pKa: 3.7

## Xylanase (family 11 endo-1,4-beta-xylanase) (Bacillus circulans (inferred))
Asp122
  pKa: 3.6
Asp12
  pKa: 2.5
Glu79
  pKa: 4.6
Asp107
  pKa: 2.7
Asp5
  pKa: 3
Asp120
  pKa: 3.2
His157
  pKa: 6.5

## Ribonuclease A (RNaseA) (Bos taurus (inferred))
His119
  pKa: 6.1
Asp121
  pKa: 3.1
Glu9
  pKa: 4
Asp53
  pKa: 3.9
Asp14
  pKa: 2
Glu2
  pKa: 2.8
Asp38
  pKa: 3.5
Glu111
  pKa: 3.6
His105
  pKa: 6.7
Glu86
  pKa: 4.1
Glu49
  pKa: 4.7
Asp83
  pKa: 3.5
His48
  pKa: 6
His12
  pKa: 6.2
